# Assay results: the supplement of paper PMC11502859
# Test system: HEK293T
# Experiment: median enrichment of reporter reads in eGFP-reduced (low/intermediate) vs eGFP-high sorted cells (eGFP-extension fusion abundance) (ratio); higher = stronger loss of eGFP-fusion protein abundance (more destabilising extension)
# 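Further: lentiviral eGFP-IRES-mCherry reporter pool sorted by FACS 96 h post-transduction, gated on mCherry-high cells, Illumina read counts normalized per million, median across four biological replicates.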
# Chain of ZNF28 (chain, as listed by the source): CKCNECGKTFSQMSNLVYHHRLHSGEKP
row,Substance,median enrichment
1,SQDLVGGTGNWGWEGGNKDIWPS [RNF25],1.76
2,SYFRLESKTS [PIK3CG],1.99
3,SAGSSPLVHSSQGQKGVDMINTESPTSTPTEFPARQCQKHFSREPKPNQEEAREEAGREEGAFPAPRFLKCRSDTCVGVHVLY [SWI5],1.02
4,EVQPACSCIQKPATTQPISACAYPDKKTKIPLGKTQALTLLFKWPLQKV [TPD52L1],13
5,YPPQGPAPPRPGE [WFIKKN1],0.52
6,QLVKTMGVVLTQPPIPQGASGQSFWHCSRIPPSWCVWRVGKAGRDINLEENT [ARHGEF25],6.94
7,QAR [MMP10],0.457
8,YAQLAICKVTSAKFSFGSYPRAPMSSYQEVINVTPFHRLKGVITLLLG [PAFAH2],4.37
9,YRTDVE [HEY1],0.613
10,QVISQSIYVLSNM [PSMA1],7.19
11,RCTKDLLF [GNA13],1.38
12,FGHSRTGERQLYFSLGQLQRVGQALMGSDCQSDAVGPRQRKAGRRGARTFSPHCPFPFSGEHRRLLTPTSCEAVAYGVQRSWS [C16orf58],4.42
13,LNILKCKASTV [TRAPPC6B],1.63
14,LLCKEYGIAKISLVANISGKVHIFILNSHSFEL [MYNN],4.26
15,QYT [ZMYM5],0.736
16,LLTVFHKEDV [ATP2A2],10.9
17,YPAHLASLFSF [ECD],2.85
18,RETPTTPQPHRTNNSLQV [DCSTAMP],0.265
19,WNHRSGRSRALSSCTVFIVPGTLFKDI [LIN7B],4.84
20,RDSSP [CD1C],0.413
21,SGGVGPGRAGVCWHRQPPLWALGGPLKGSPTRGPDESFLSGVGSQRGSPPAAWGRAWPGRVIQRVCQPLTGSPSVAATRSTEL [FAM53B],5.41
22,WECRSAGRREE [CNPY1],7.46
23,LAGWDHPPAPQLHALP [INSYN2B],0.774
24,LILKLHPQ [BZW1],4.65
25,YATRRCPRPSRRRGSLAGAAPPCVRPAGAHVF [HHIPL1],11.3
26,LVARALGVLLEAPRASRIASQLPGQPTLLQPLTRTPVIRTGAPVPWSPPWAHVLTQAQQ [OVOL1],9.61

row,Substance,median enrichment
1,CGGLPRRAKMAEMILKITEEREDQPEFPLDICVFLFFYFVLFFLLLLLP [SOX9],9.11
2,ZNF28,1.64
3,WEKN [C12orf65],0.333
4,WAAPPGRWGAPLNDSVILKRWLGSWEKPSGCPLGNLHIISVLLVMSRWRGHRCAVSCSRNY [C19orf12],22
5,SVQMMWEFVGFLFFFFFDT [ZNF80],7.98
6,QSWWPQPLASDTLYLKNNCAL [CALB1],5.97
7,YMQKWIK [KCNMB2],11.9
8,YRRQRAWCDLVGSGNGRKRSPP [BTBD9],6.86
9,SPARRPSQRVTRPRGRTDSSDSPQ [EPS8L1],0.338
10,DDDDDDD [Asp07],0.338
11,LYVTVSCLSSSMYF [ARHGEF35],14.4
12,QYLTGHHRILWIFFPSFWFWFRANSCFIGTVYEAFETKNNEE [GALC],6.16
13,RWTSLFPGPRTLQEMETVQRAVWSHNLNRFSGAPSLLPSLQ [RPRD1A],6.53
14,WNMKAEMQQTTSA [MNDA],0.66
15,QCHLLSPTTP [PPY],0.404
16,NNNN [Asn04],0.299
17,WLSLRKGRRRGAQGHLLP,28.3
18,YVCAEESKTPFRATIPQ [SLC22A25],1.62
19,WVPSEVFIPACVI [VPS13B],13.3
20,TTTTTT [Thr06],0.322
21,RAAPPSGQKLK [ALG1L],0.251
22,QRQ [GNB1],0.344
23,WARGHARAVQSWPGPPVGLLCSLPSLPPDAGPCCSLRTIRSSCSCHPHLETCLCAHLKMGSVPVLKCPVAAPVVEDQGLRFGT [FRMD8],5.56
24,WQAGS [IFITM5],0.552
25,SCIAGLSSAASTECQAPHSAHPWALLRGPKTQEEERSACPLPPPLQYSLCAVV [SYCN],10.8
